Reference: article PMC5959768 (Cell, 2018)

Molecular target: Gβ1/Gγ2(C68S) complex (human, UniProt P62873 1-340; P59768 1-71, C68S)
Test: SEC

Sequence of Gβ1/Gγ2(C68S) complex (P62873 whole entry, chain 1 of 2): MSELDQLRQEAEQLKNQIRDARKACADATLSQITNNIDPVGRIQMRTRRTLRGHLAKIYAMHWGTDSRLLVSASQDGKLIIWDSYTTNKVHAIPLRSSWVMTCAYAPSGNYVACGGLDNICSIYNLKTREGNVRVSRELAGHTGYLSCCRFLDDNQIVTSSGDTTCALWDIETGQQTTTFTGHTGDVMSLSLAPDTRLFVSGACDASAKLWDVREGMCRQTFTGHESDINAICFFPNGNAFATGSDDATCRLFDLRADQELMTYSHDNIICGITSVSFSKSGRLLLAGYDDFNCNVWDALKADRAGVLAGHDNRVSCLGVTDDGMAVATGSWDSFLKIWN
Sequence of Gβ1/Gγ2(C68S) complex (P59768 whole entry C68S, chain 2 of 2): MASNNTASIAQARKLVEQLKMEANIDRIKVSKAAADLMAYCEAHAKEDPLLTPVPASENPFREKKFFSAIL

binding result: binds
B1: Wild type human Gαs (residues 7-380 of the short isoform) (natural protein, UniProt P63092-2 7-380, looked up)
chain: SKTEDQRNEEKAQREANKKIEKQLQKDKQVYRATHRLLLLGAGESGKSTIVKQMRILHVNGFNGDSEKATKVQDIKNNLKEAIETIVAAMSNLVPPVELANPENQFRVDYILSVMNVPDFDFPPEFYEHAKALWEDEGVRACYERSNEYQLIDCAQYFLDKIDVIKQADYVPSDQDLLRCRVLTSGIFETKFQVDKVNFHMFDVGGQRDERRKWIQCFNDVTAIIFVVASSSYNMVIREDNQTNRLQEALNLFKSIWNNRWLRTISVILFLNKQDLLAEKVLAGKSKIEDYFPEFARYTTPEDATPEPGEDPRVTRAKYFIRDEFLRISTASGDGRHYCYPHFTCAVDTENIRRVFNDCRDIIQRMHLRQYELL
